Reference: US20240199761A1 (AstraZeneca / MedImmune, published 2024)
Changes are numbered by the printed parent chain. Like-named read-outs stand apart in the source and are kept apart here. Values belong to the binder of their own block, whether it stands above or below them.

Key:
recombinant human PAD2 = recombinant human PAD2 (human, UniProt Q9Y2J8 1-665); test: cell-based or functional assay
huFcRn = biological target: T1, huFcRn (human, UniProt P55899 24-297; P61769 21-119, limits assumed); test: huFcRn affinity chromatography, pH gradient elution
T1 construct: also called human neonatal Fc receptor

[1] = biological target: T2, cynomolgus PAD2 haplotype N55D, N82S (37.5%) (cynomolgus, UniProt G7NUR0 1-665); test: SPR; antibody captured on C1-Protein G', PAD2 flowed over
T2 chain: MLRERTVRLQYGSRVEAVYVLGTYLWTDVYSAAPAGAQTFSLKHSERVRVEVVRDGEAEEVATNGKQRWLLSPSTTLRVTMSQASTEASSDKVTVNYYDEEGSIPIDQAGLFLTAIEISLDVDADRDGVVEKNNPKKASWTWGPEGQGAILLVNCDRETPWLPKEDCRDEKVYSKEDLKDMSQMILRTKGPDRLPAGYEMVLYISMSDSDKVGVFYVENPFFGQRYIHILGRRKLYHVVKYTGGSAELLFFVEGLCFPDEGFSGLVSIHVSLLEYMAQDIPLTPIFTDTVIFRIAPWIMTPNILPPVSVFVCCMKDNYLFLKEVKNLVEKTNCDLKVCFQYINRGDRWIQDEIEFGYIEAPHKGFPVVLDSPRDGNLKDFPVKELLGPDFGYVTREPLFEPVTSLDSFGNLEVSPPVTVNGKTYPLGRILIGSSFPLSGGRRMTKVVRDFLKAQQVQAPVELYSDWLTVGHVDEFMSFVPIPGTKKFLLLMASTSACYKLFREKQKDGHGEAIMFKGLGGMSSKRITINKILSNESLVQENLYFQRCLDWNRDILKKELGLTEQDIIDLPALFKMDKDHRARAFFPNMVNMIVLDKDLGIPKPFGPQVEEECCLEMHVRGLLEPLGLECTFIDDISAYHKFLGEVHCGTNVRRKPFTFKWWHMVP

[2] = biological target: T3, cynomolgus PAD2 haplotype N55D, T63A, N82S (9.4%) (cynomolgus, UniProt G7NUR0 1-665); test: as above
T3 chain: T2 chain with T63A

recombinant mouse PAD2 = biological target: T4, recombinant mouse PAD2 (mouse, UniProt Q08642 1-673); test: ratio of SPR KDs, mouse PAD2 against human PAD2; antibody captured on C1-Protein G', PAD flowed over
T4 construct: Recombinant and tagged

[3] = biological target: T5, human PAD2, recombinant, tags at the N-terminus (human, UniProt Q9Y2J8 1-665, enzymatically biotinylated on an Avi-tag where captured on streptavidin); test: SPR; antibody on C1-Protein G', PAD2 flowed over
T5 construct: not shown: N-terminal tags incl; Avi-tag

[4] = biological target: T6, cynomolgus PAD2, recombinant, tags at the N-terminus (cynomolgus, UniProt G7NUR0 1-665, enzymatically biotinylated on an Avi-tag where captured on streptavidin); test: SPR; antibody on C1-Protein G', PAD2 flowed over
T6 construct: also called Cyno PAD2; not shown: N-terminal tags incl; Avi-tag

[5] = biological target: T7, mouse PAD2, recombinant, tags at the N-terminus (mouse, UniProt Q08642 1-673, enzymatically biotinylated on an Avi-tag where captured on streptavidin); test: SPR; antibody on C1-Protein G', PAD2 flowed over
T7 construct: not shown: N-terminal tags incl; Avi-tag

[6] = biological target: T5, human PAD2, recombinant, tags at the …; test: SPR; antibody on C1-Protein G', PAD2 flowed over; remark: listed apart in the source
[7] = biological target: T6, cynomolgus PAD2, recombinant, tags at …; test: SPR; antibody on C1-Protein G', PAD2 flowed over; remark: listed apart in the source
[8] = biological target: T7, mouse PAD2, recombinant, tags at the …; test: SPR; antibody on C1-Protein G', PAD2 flowed over; remark: listed apart in the source
[9] = biological target: T5, human PAD2, recombinant, tags at the …; test: SPR; biotinylated antibody on C1-streptavidin, PAD2 flowed over
[10] = biological target: T6, cynomolgus PAD2, recombinant, tags at …; test: as above
[11] = biological target: T5, human PAD2, recombinant, tags at the …; test: as above; remark: listed apart in the source
[12] = biological target: T6, cynomolgus PAD2, recombinant, tags at …; test: as above; remark: listed apart in the source
Human PAD1 = biological target: T8, Human PAD1 (Homo sapiens, UniProt Q9ULC6); test: specificity ELISA: biotinylated PAD on a streptavidin plate, detection with anti-human IgG Fc HRP, Binding (RFU); antibody concentration not given
T8 construct: biotinylated, captured on a streptavidin plate; also called biotinylated PAD1
T8 sequence (single chain, looked up): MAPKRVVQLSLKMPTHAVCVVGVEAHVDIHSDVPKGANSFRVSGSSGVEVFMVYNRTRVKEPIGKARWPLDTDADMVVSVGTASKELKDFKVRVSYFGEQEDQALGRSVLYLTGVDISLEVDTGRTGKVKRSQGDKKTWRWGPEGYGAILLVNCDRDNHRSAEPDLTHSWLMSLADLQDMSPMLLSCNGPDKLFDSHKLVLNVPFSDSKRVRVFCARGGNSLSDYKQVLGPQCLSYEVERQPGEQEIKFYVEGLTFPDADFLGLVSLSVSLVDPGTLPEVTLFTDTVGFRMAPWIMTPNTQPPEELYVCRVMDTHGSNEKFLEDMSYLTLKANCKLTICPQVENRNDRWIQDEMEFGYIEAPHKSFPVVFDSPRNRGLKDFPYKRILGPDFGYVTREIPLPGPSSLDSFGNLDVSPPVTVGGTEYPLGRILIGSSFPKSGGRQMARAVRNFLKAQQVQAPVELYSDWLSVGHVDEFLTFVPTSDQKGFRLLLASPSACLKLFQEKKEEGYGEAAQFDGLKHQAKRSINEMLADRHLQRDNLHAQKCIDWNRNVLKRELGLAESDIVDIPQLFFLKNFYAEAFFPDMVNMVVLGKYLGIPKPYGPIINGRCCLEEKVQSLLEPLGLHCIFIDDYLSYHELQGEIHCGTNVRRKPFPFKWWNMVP

Human PAD3 = biological target: T9, Human PAD3 (Homo sapiens, UniProt Q9ULW8); test: as above
T9 construct: biotinylated, captured on a streptavidin plate; also called biotinylated PAD3
T9 sequence (single chain, looked up): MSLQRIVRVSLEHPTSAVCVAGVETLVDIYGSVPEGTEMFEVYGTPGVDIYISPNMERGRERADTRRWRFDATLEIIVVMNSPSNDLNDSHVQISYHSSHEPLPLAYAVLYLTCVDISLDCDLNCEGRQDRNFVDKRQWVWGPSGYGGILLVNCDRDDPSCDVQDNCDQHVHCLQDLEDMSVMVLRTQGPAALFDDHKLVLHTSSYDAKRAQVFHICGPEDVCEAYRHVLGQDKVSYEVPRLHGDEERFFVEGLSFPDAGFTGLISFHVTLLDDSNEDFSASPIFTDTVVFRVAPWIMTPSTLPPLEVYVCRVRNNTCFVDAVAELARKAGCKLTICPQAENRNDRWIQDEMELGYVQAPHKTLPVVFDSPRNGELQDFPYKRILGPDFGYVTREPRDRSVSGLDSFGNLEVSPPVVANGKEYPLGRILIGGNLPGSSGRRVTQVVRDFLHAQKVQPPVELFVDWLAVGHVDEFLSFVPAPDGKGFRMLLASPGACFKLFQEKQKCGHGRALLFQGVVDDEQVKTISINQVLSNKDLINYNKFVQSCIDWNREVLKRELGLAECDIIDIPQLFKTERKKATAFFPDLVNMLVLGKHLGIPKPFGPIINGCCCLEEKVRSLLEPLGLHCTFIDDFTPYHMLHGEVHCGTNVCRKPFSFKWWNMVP

Potency (IC50), Histone-H3 assay (recombinant human PAD2): 94 pM | HPLC retention (huFcRn): 17 min | Relative retention (huFcRn): -0.207 | Kd [1]: 6.4 pM | koff [1]: 2.65e-05 s⁻¹ | kon [1]: 4.23e+06 M⁻¹ s⁻¹ | Kd [2]: 43.4 pM | koff [2]: 6.76e-05 s⁻¹ | kon [2]: 1.58e+06 M⁻¹ s⁻¹ | fold difference in KD, mouse/human (recombinant mouse PAD2): 1.1 fold
B1: Clone 08 (Bis3, TM; Fab anti-PAD2, scFv anti-PAD4) (bispecific antibody, human IgG1, lambda)
heavy: not shown
light: SYVLTQPPSVSVSPGQTASITCSGDKVGDKYVSWYQQKPGQSPVLVIYQDSQRPSGIPERFSGSNSGNTATLTISGTQAMDEADYYCQTWAPDVLLFGSGTKVTVLGQPKAAPSVTLFPPSSEELQANKATLVCLISDFYPGAVTVAWKADSSPVKAGVETTTPSKQSNNKYAASSYLSLTPEQWKSHRSYSCQVTHEGSTVEKTVAPTECS
notes: Bivalent bispecific IgG-HC-scFv; also called Clone 8*; Clone 8^#

Kd [3]: 6.65 pM | koff [3]: 2.97e-05 s⁻¹ | kon [3]: 4.48e+06 M⁻¹ s⁻¹ | Kd [4]: 16.7 pM | koff [4]: 4.52e-05 s⁻¹ | kon [4]: 2.74e+06 M⁻¹ s⁻¹ | Kd [5]: 7.19 pM | koff [5]: 3.31e-05 s⁻¹ | kon [5]: 4.65e+06 M⁻¹ s⁻¹ | Kd [6]: 6.65 pM | Kd [7]: 16.7 pM | Kd [8]: 7.19 pM | Kd [9]: 7.51 pM | koff [9]: 4.74e-05 s⁻¹ | kon [9]: 5.88e+06 M⁻¹ s⁻¹ | Kd [10]: 12.1 pM | koff [10]: 0.0001 s⁻¹ | kon [10]: 9.48e+06 M⁻¹ s⁻¹ | Kd [11]: 7.51 pM | Kd [12]: 12.1 pM
B2: Clone 08, Bis3 anti-PAD2 Fab / anti-PAD4 scFv, Fc TM (bispecific antibody, human IgG1, lambda)
heavy: not shown
light: B1 light
notes: Bivalent for PAD2 and for PAD4; In the rows marked ^# the antibody was chemically biotinylated; also called Clone 8*; Clone 8^#

binding result (Human PAD1): no binding | binding result (Human PAD3): no binding
B3: Clone 12 (Bis3, FQQ-YTE; PAD2 Fab, PAD4 scFv) (bispecific antibody, human IgG1, lambda)
heavy: not shown
light: B1 light
notes: also called PAD240012
